From article PMC9763339

Biological target: RBM5-Myc (UniProt P52756)
Chain of UniProt P52756 (P52756 whole entry): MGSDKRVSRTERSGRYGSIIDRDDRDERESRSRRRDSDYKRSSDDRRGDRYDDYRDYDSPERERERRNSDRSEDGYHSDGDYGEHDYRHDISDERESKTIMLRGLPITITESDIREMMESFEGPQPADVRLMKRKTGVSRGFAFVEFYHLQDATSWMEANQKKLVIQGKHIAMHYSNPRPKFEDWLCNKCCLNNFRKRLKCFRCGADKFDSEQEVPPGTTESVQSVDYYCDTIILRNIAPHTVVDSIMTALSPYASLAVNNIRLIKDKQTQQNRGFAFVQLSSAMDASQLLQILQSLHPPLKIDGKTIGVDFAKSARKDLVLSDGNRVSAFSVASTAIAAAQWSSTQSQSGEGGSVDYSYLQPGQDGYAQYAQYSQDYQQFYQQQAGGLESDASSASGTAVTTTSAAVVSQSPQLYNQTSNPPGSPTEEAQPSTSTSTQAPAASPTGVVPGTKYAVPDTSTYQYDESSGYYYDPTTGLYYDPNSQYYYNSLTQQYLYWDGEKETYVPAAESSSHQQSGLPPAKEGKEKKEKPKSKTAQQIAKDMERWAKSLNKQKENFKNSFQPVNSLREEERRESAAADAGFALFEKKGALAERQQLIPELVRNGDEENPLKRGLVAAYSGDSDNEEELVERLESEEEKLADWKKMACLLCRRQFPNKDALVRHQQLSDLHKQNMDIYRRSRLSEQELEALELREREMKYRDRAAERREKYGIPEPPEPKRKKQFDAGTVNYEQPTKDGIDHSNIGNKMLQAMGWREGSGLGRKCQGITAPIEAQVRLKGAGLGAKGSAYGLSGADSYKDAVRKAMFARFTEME

## InlP-HA (in HeLa cells) (natural protein)
  percentage of HeLa cells with aberrantly shaped nuclei (RBM5-induced cell death) when InlP is co-expressed with RBM5: 13%
